Measurements published in article PMC9051516.

Legend:
[1] = biological target: TGBp1-cYFP (cowpea mild mottle virus triple gene block protein 1 fused to the C-terminal half of YFP) (cowpea mild mottle virus (isolate CPMMV_AH_SZ)); experiment: split reporter (BiFC, NanoBiT); BiFC: nYFP and cYFP fusions co-expressed by agroinfiltration in N. benthamiana leaves; YFP signal by confocal microscopy 48 h after infiltration; mean intensity of whole images by ImageJ
[2] = biological target: TGBp1-cYFP (cowpea mild mottle virus triple gene block protein 1 fused to the C-terminal half of YFP) (cowpea mild mottle virus (isolate CPMMV_AH_SZ)); experiment: split reporter (BiFC, NanoBiT); BiFC of the TGBp1 and TGBp3 YFP halves with TGBp2-Flag co-expressed in N. benthamiana leaves; confocal microscopy 48 h after infiltration; mean intensity of whole images by ImageJ

Substance: TGBp3-nYFP (cowpea mild mottle virus triple gene block protein 3 fused to the N-terminal half of YFP) (natural protein)
- mean fluorescence intensity of the BiFC signal, without TGBp2-Flag [1]: 75.7
- mean fluorescence intensity of the BiFC signal, with TGBp2-Flag co-expressed [2]: 95.9
